Holding throughout (experiment): chemical modification
Common to all, as to details: 37 °C, added salt not given, universal pH buffer: 5 mM CHES, 5 mM HEPES, 5 mM MES, degassed and charged with nitrogen

For data set [1], the target named is Cys3 (position 3, ---GGCPYADA).
In data set [2] the target is Cys3 (position 3, ---KKCPYSAD).
Data set [3] has as its target Cys3 (position 3, ---KKCPYSAA).
In data set [4] the target is Cys3 (position 3, ---KKCPYSDA).
For data set [5], the target named is Cys3 (position 3, ---YGCPAADA).
For data set [6], the target named is Cys3 (position 3, ---YGCAAADA).
In data set [7] the target is Cys3 (position 3, ---YGCAAAAA).
The target of data set [8] is Cys3 (position 3, ---RRCPYSDA).
Setting [9] is: free peptide, 2-4Zn(II) absent. Peptide-a of this series, which lacks Cys, is described as a random coil without zinc complex.
Where [10] appears, read: peptide (4 µM) in binding complex with the tetranuclear zinc complex 2-4Zn(II) (14 µM), alpha-helical conformation induced by the complex.

For orientation: pKa means the pH at which an ionisable group is half protonated. Take GGCPYADAAADAAADAAAD [peptide-e (Cys-Pro-Tyr-Ala glutaredoxin-mimicking tag peptide) (synthetic construct)]: the pKa in data set [1] (setting [9]) worked out at 8.48; in data set [1] (setting [10]), 7.46.

On to KKCPYSADAAADAAADAAAD [peptide-j (synthetic construct)], for which the pKa in data set [2] (setting [9]) is listed as 7.94; in data set [2] (setting [10]), 7.08.

For KKCPYSAADAAADAAADAAAD [peptide-k (helixD2-tag peptide) (synthetic construct)], the pKa in data set [3] (setting [9]) came to 7.95; in data set [3] (setting [10]) it was 7.14.

KKCPYSDAAADAAADAAAD [peptide-g (synthetic construct)]: the pKa is 8.04 in data set [4] (setting [9]) and 7.13 in data set [4] (setting [10]).

Take YGCPAADAAADAAADAAAD [peptide-f (synthetic construct)]: the pKa in data set [5] (setting [9]) is 8.93; in data set [5] (setting [10]), 7.80.

For the protein YGCAAADAAADAAADAAAD [peptide-d (Asp-rich alpha-helical tag peptide) (synthetic construct)], the pKa in data set [6] (setting [9]) stood at 8.89; in data set [6] (setting [10]) it was 7.94.

In the case of YGCAAAAAADDDDGDDDD [peptide-i (D4-tag peptide) (synthetic construct)], the pKa in data set [7] (setting [9]) is recorded as 8.96; in data set [7] (setting [10]) it was 8.22.

For RRCPYSDAAADAAADAAAD [peptide-h (synthetic construct)], the pKa in data set [8] (setting [9]) is 8.02; in data set [8] (setting [10]) it was 7.18.

These data come from publication PMC6906691.
